The test system of experiment [1] is Hsp90 complexes in K562 cell extract. The experiment can be described thus: Nano-LC-MS/MS of PU-beads pull-downs. The class given is binding. The following applies: protein identified in PU-beads pull-down of K562 cell extract, QSTAR-Elite QTof MS. The method, boiled down:
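Proteins were identified by data-dependent nano LC-MS/MS (QTof, ESI) and Mascot searching (p<0.05), then reported as spectral counts and coverage via Scaffold. Inputs were PU-bead versus control-bead pull-downs from lysate pre-cleared with control beads overnight at 4 °C, eluted by boiling in 2% SDS.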

Experiment [2] concerns Hsp90 complexes in Mia-PaCa-2 cell extract. The experiment can be described thus: Nano-LC-MS/MS of PU-beads pull-downs. The class given is binding, human. The following applies: protein identified in PU-beads pull-down of Mia-PaCa-2 cell extract; QSTAR-Elite QTof MS. An outline of the steps: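 They came from PU-bead pull-downs of pre-cleared lysates (control beads, overnight, 4 °C), eluted by boiling in 2% SDS, gel-separated and run by data-dependent nano-ESI QTof MS/MS.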

B1: NUP160 (protein, UniProt Q12769 1-1436, looked up)
Nuclear pore complex protein …: MLHLSAAPPAPPPEVTATARPCLCSVGRRGDGGKMAAAGALERSFVELSGAERERPRHFREFTVCSIGTANAVAGAVKYSESAGGFYYVESGKLFSVTRNRFIHWKTSGDTLELMEESLDINLLNNAIRLKFQNCSVLPGGVYVSETQNRVIILMLTNQTVHRLLLPHPSRMYRSELVVDSQMQSIFTDIGKVDFTDPCNYQLIPAVPGISPNSTASTAWLSSDGEALFALPCASGGIFVLKLPPYDIPGMVSVVELKQSSVMQRLLTGWMPTAIRGDQSPSDRPLSLAVHCVEHDAFIFALCQDHKLRMWSYKEQMCLMVADMLEYVPVKKDLRLTAGTGHKLRLAYSPTMGLYLGIYMHAPKRGQFCIFQLVSTESNRYSLDHISSLFTSQETLIDFALTSTDIWALWHDAENQTVVKYINFEHNVAGQWNPVFMQPLPEEEIVIRDDQDPREMYLQSLFTPGQFTNEALCKALQIFCRGTERNLDLSWSELKKEVTLAVENELQGSVTEYEFSQEEFRNLQQEFWCKFYACCLQYQEALSHPLALHLNPHTNMVCLLKKGYLSFLIPSSLVDHLYLLPYENLLTEDETTISDDVDIARDVICLIKCLRLIEESVTVDMSVIMEMSCYNLQSPEKAAEQILEDMITIDVENVMEDICSKLQEIRNPIHAIGLLIREMDYETEVEMEKGFNPAQPLNIRMNLTQLYGSNTAGYIVCRGVHKIASTRFLICRDLLILQQLLMRLGDAVIWGTGQLFQAQQDLLHRTAPLLLSYYLIKWGSECLATDVPLDTLESNLQHLSVLELTDSGALMANRFVSSPQTIVELFFQEVARKHIISHLFSQPKAPLSQTGLNWPEMITAITSYLLQLLWPSNPGCLFLECLMGNCQYVQLQDYIQLLHPWCQVNVGSCRFMLGRCYLVTGEGQKALECFCQAASEVGKEEFLDRLIRSEDGEIVSTPRLQYYDKVLRLLDVIGLPELVIQLATSAITEAGDDWKSQATLRTCIFKHHLDLGHNSQAYEALTQIPDSSRQLDCLRQLVVVLCERSQLQDLVEFPYVNLHNEVVGIIESRARAVDLMTHNYYELLYAFHIYRHNYRKAGTVMFEYGMRLGREVRTLRGLEKQGNCYLAALNCLRLIRPEYAWIVQPVSGAVYDRPGASPKRNHDGECTAAPTNRQIEILELEDLEKECSLARIRLTLAQHDPSAVAVAGSSSAEEMVTLLVQAGLFDTAISLCQTFKLPLTPVFEGLAFKCIKLQFGGEAAQAEAWAWLAANQLSSVITTKESSATDEAWRLLSTYLERYKVQNNLYHHCVINKLLSHGVPLPNWLINSYKKVDAAELLRLYLNYDLLEEAVDLVSEYVDAVLGKGHQYFGIEFPLSATAPMVWLPYSSIDQLLQALGENSANSHNIALSQKILDKLEDYQQKVDKATRDLLYRRTL
On to B1, for which, in experiment [1], the “Number of Assigned Spectra, K562 Prep 1” value stood at 13 and the “Number of Assigned Spectra, K562 Prep 2” value is reported as 1. The “Number of Assigned Spectra, Mia-Paca 2” value in experiment [2] came out at 0.

B2: PRPF31 (protein, UniProt Q8WWY3 1-499, looked up)
U4/U6 small nuclear …: MSLADELLADLEEAAEEEEGGSYGEEEEEPAIEDVQEETQLDLSGDSVKTIAKLWDSKMFAEIMMKIEEYISKQAKASEVMGPVEAAPEYRVIVDANNLTVEIENELNIIHKFIRDKYSKRFPELESLVPNALDYIRTVKELGNSLDKCKNNENLQQILTNATIMVVSVTASTTQGQQLSEEELERLEEACDMALELNASKHRIYEYVESRMSFIAPNLSIIIGASTAAKIMGVAGGLTNLSKMPACNIMLLGAQRKTLSGFSSTSVLPHTGYIYHSDIVQSLPPDLRRKAARLVAAKCTLAARVDSFHESTEGKVGYELKDEIERKFDKWQEPPPVKQVKPLPAPLDGQRKKRGGRRYRKMKERLGLTEIRKQANRMSFGEIEEDAYQEDLGFSLGHLGKSGSGRVRQTQVNEATKARISKTLQRTLQKQSVVYGGKSTIRDRSSGTASSVAFTPLQGLEIVNPQAAEKKVAEANQKYFSSMAEFLKVKGEKSGLMST
Regarding B2, in experiment [1], the “Number of Assigned Spectra, K562 Prep 1” value came to 3 and the “Number of Assigned Spectra, K562 Prep 2” value turned out to be 2. Also, the “Number of Assigned Spectra, Mia-Paca 2” value in experiment [2] is listed as 0.

B3: NUP85 (protein, UniProt Q9BW27 1-656, looked up)
Nuclear pore complex protein …: MEELDGEPTVTLIPGVNSKKNQMYFDWGPGEMLVCETSFNKKEKSEMVPSCPFIYIIRKDVDVYSQILRKLFNESHGIFLGLQRIDEELTGKSRKSQLVRVSKNYRSVIRACMEEMHQVAIAAKDPANGRQFSSQVSILSAMELIWNLCEILFIEVAPAGPLLLHLLDWVRLHVCEVDSLSADVLGSENPSKHDSFWNLVTILVLQGRLDEARQMLSKEADASPASAGICRIMGDLMRTMPILSPGNTQTLTELELKWQHWHEECERYLQDSTFATSPHLESLLKIMLGDEAALLEQKELLSNWYHFLVTRLLYSNPTVKPIDLHYYAQSSLDLFLGGESSPEPLDNILLAAFEFDIHQVIKECSIALSNWWFVAHLTDLLDHCKLLQSHNLYFGSNMREFLLLEYASGLFAHPSLWQLGVDYFDYCPELGRVSLELHIERIPLNTEQKALKVLRICEQRQMTEQVRSICKILAMKAVRNNRLGSALSWSIRAKDAAFATLVSDRFLRDYCERGCFSDLDLIDNLGPAMMLSDRLTFLGKYREFHRMYGEKRFADAASLLLSLMTSRIAPRSFWMTLLTDALPLLEQKQVIFSAEQTYELMRCLEDLTSRRPVHGESDTEQLQDDDIETTKVEMLRLSLARNLARAIIREGSLEGS
As for B3, in experiment [1], the “Number of Assigned Spectra, K562 Prep 1” value amounted to 14 and the “Number of Assigned Spectra, K562 Prep 2” value amounted to 2. Besides, the “Number of Assigned Spectra, Mia-Paca 2” value in experiment [2] came out at 0.

B4: LRRC40 (protein, UniProt Q9H9A6 1-602, looked up)
Leucine-rich …: MSRLKRIAGQDLRAGFKAGGRDCGTSVPQGLLKAARKSGQLNLSGRNLSEVPQCVWRINVDIPEEANQNLSFGATERWWEQTDLTKLIISNNKLQSLTDDLRLLPALTVLDIHDNQLTSLPSAIRELENLQKLNVSHNKLKILPEEITNLRNLKCLYLQHNELTCISEGFEQLSNLEDLDLSNNHLTTVPASFSSLSSLVRLNLSSNELKSLPAEINRMKRLKHLDCNSNLLETIPPELAGMESLELLYLRRNKLRFLPEFPSCSLLKELHVGENQIEMLEAEHLKHLNSILVLDLRDNKLKSVPDEIILLRSLERLDLSNNDISSLPYSLGNLHLKFLALEGNPLRTIRREIISKGTQEVLKYLRSKIKDDGPSQSESATETAMTLPSESRVNIHAIITLKILDYSDKQATLIPDEVFDAVKSNIVTSINFSKNQLCEIPKRMVELKEMVSDVDLSFNKLSFISLELCVLQKLTFLDLRNNFLNSLPEEMESLVRLQTINLSFNRFKMLPEVLYRIFTLETILISNNQVGSVDPQKMKMMENLTTLDLQNNDLLQIPPELGNCVNLRTLLLDGNPFRVPRAAILMKGTAAILEYLRDRIPT
Regarding B4, in experiment [1], the “Number of Assigned Spectra, K562 Prep 1” value is given as 4 and the “Number of Assigned Spectra, K562 Prep 2” value amounted to 3. Also, the “Number of Assigned Spectra, Mia-Paca 2” value in experiment [2] is 0.

B5: NOP14 (protein, UniProt P78316 1-857, looked up)
Nucleolar protein 14: MAKAKKVGARRKASGAPAGARGGPAKANSNPFEVKVNRQKFQILGRKTRHDVGLPGVSRARALRKRTQTLLKEYKERDKSNVFRDKRFGEYNSNMSPEEKMMKRFALEQQRHHEKKSIYNLNEDEELTHYGQSLADIEKHNDIVDSDSDAEDRGTLSAELTAAHFGGGGGLLHKKTQQEGEEREKPKSRKELIEELIAKSKQEKRERQAQREDALELTEKLDQDWKEIQTLLSHKTPKSENRDKKEKPKPDAYDMMVRELGFEMKAQPSNRMKTEAELAKEEQEHLRKLEAERLRRMLGKDEDENVKKPKHMSADDLNDGFVLDKDDRRLLSYKDGKMNVEEDVQEEQSKEASDPESNEEEGDSSGGEDTEESDSPDSHLDLESNVESEEENEKPAKEQRQTPGKGLISGKERAGKATRDELPYTFAAPESYEELRSLLLGRSMEEQLLVVERIQKCNHPSLAEGNKAKLEKLFGFLLEYVGDLATDDPPDLTVIDKLVVHLYHLCQMFPESASDAIKFVLRDAMHEMEEMIETKGRAALPGLDVLIYLKITGLLFPTSDFWHPVVTPALVCLSQLLTKCPILSLQDVVKGLFVCCLFLEYVALSQRFIPELINFLLGILYIATPNKASQGSTLVHPFRALGKNSELLVVSAREDVATWQQSSLSLRWASRLRAPTSTEANHIRLSCLAVGLALLKRCVLMYGSLPSFHAIMGPLQALLTDHLADCSHPQELQELCQSTLTEMESQKQLCRPLTCEKSKPVPLKLFTPRLVKVLEFGRKQGSSKEEQERKRLIHKHKREFKGAVREIRKDNQFLARMQLSEIMERDAERKRKVKQLFNSLATQEGEWKALKRKKFKK
In the case of B5, in experiment [1], the “Number of Assigned Spectra, K562 Prep 1” value is 9 and the “Number of Assigned Spectra, K562 Prep 2” value came to 2. Besides, the “Number of Assigned Spectra, Mia-Paca 2” value in experiment [2] was determined as 0.

B6: PRPF3 (protein, UniProt O43395 1-683, looked up)
U4/U6 small nuclear …: MALSKRELDELKPWIEKTVKRVLGFSEPTVVTAALNCVGKGMDKKKAADHLKPFLDDSTLRFVDKLFEAVEEGRSSRHSKSSSDRSRKRELKEVFGDDSEISKESSGVKKRRIPRFEEVEEEPEVIPGPPSESPGMLTKLQIKQMMEAATRQIEERKKQLSFISPPTPQPKTPSSSQPERLPIGNTIQPSQAATFMNDAIEKARKAAELQARIQAQLALKPGLIGNANMVGLANLHAMGIAPPKVELKDQTKPTPLILDEQGRTVDATGKEIELTHRMPTLKANIRAVKREQFKQQLKEKPSEDMESNTFFDPRVSIAPSQRQRRTFKFHDKGKFEKIAQRLRTKAQLEKLQAEISQAARKTGIHTSTRLALIAPKKELKEGDIPEIEWWDSYIIPNGFDLTEENPKREDYFGITNLVEHPAQLNPPVDNDTPVTLGVYLTKKEQKKLRRQTRREAQKELQEKVRLGLMPPPEPKVRISNLMRVLGTEAVQDPTKVEAHVRAQMAKRQKAHEEANAARKLTAEQRKVKKIKKLKEDISQGVHISVYRVRNLSNPAKKFKIEANAGQLYLTGVVVLHKDVNVVVVEGGPKAQKKFKRLMLHRIKWDEQTSNTKGDDDEESDEEAVKKTNKCVLVWEGTAKDRSFGEMKFKQCPTENMAREHFKKHGAEHYWDLALSESVLESTD
Take B6: in experiment [1], the “Number of Assigned Spectra, K562 Prep 1” value is reported as 3 and the “Number of Assigned Spectra, K562 Prep 2” value stood at 0. Besides, the “Number of Assigned Spectra, Mia-Paca 2” value in experiment [2] was 0.

(Values after patent US20220074941A1, “HSP90 COMBINATION THERAPY” (Sloan-Kettering Institute for Cancer Research, priority 2011, published 2022).)
